From paper PMC1868780, “Short RNA Guides Cleavage by Eukaryotic RNase III”

Target: T1, Rnt1p (yeast RNase III) (Saccharomyces cerevisiae, UniProt Q02555 1-471)
T1 sequence: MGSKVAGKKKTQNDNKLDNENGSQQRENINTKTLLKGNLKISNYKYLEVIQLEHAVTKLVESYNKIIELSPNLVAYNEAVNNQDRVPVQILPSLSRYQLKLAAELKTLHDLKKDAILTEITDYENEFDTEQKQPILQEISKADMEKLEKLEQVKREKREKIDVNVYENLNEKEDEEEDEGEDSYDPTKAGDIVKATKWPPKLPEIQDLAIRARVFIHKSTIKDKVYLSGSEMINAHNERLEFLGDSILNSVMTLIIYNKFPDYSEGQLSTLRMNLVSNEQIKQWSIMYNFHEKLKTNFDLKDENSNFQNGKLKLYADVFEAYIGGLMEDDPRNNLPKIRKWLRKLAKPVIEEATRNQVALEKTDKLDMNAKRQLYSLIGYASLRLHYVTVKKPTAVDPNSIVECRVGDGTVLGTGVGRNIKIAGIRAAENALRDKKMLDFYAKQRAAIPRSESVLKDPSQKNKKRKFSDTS
Experiment: EMSA; apparent K'd; Protein EMSA as in cited ref 12 (buffer not given): 3 fmol 5'-labeled RNA, Rnt1p 0.25-6 uM; trans reactions with 2 pmol cold target
Details: protein: recombinant; chain copies: 2; label: 5'-32P; hairpin

B1: 3'-Branch (structured_RNA)
RNA: GCUUGAAGAGGAUGAGUCCAUCCCCAAAACAUUAGCUUGAAAAAGCUAAUGUUUUGGAAUCUUCAAGAUUAUGG
Kd: 750 nM
